From patent publication US20070167370A1 (UUTECH, published 2007)

Biological target: T1, human GIP receptor, stably transfected in Chinese hamster lung (CHL) fibroblast cells (human, UniProt P48546 22-466)
T1 sequence (looked up): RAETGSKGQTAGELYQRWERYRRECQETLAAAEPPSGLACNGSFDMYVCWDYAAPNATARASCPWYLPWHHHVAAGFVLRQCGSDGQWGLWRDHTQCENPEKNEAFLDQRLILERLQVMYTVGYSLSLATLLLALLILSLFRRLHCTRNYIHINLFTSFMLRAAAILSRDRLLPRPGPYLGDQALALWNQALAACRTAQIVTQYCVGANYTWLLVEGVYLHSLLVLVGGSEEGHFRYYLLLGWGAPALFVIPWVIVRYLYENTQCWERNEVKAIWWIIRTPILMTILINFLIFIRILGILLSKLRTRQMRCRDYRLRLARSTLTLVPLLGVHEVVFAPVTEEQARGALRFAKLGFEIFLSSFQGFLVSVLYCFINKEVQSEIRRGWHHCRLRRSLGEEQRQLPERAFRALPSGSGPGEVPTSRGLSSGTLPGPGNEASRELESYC
Experiment: cell-based or functional assay

Q: For YAPGTFISDYSIAMDKIHQQDFVNWLLAQKGKKNDWKHNITQ [(Pro^3)GIP], which “IC50 of inhibition of GIP-induced cAMP formation (GIP receptor transfected CHL fibroblasts, native GIP 10^-7 M)” value is on record?
A: The value was 2.6 µM.
